In the supplement of paper PMC10126150:
± gives the standard deviation of the averaged measurements.

Tested on: ATP
Test: switch fluorescence ratio, 500 uM ATP over buffer (Cy3 cluster intensity, sum of 5 cycles each) (fold (ratio)); higher = stronger signal-on switching upon ATP binding; sequences stand for … in TCGTCGGCAGCGTCAGATGTGTATAAGAGACAGTTTTTTTTTTTTTTTTTTTTTTTTT…TC
Settings: aptamer strand: ATP DNA aptamer (quencher-CACCTGGGGGAGTATTGCGGAGGAAGG + anchor), 100 nM annealed; ATP concentration: 500 uM
Summary of the method: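 The fluorescence ratio divides summed target-cycle Cy3 intensity by summed buffer-cycle Cy3 intensity for each cluster and is averaged per switch-domain sequence. Cy3-labelled switching-strand clusters on a modified Illumina MiSeq flow-cell were annealed to 100 nM quencher-labelled ATP aptamer, then imaged in selection buffer and again after 15 min with 500 uM ATP at 22 °C. Five such cycles were run, with NaOH stripping and re-annealing between them, and clusters outside 100-1000 RFU were excluded.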
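Also: ATP exposure 15 min at 22 °C before imaging.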

| Sequence | switch fluorescence ratio |
| --- | --- |
| TTGTGCTGGG | 0.998 ± 0.022 |
| TTGTGCTTTA | 1.006 ± 0.0062 |
| TTGTGGAGAG | 1.09 ± 0.12 |
| TTGTGGAGTT | 1.01 ± 0.017 |
| TTGTGGGAGG | 0.997 ± 0.033 |
| TTGTGGGCGA | 0.9947 ± 0.0014 |
| TTGTGGGGAC | 1 ± 0.033 |
| TTGTGGGGGT | 0.998 ± 0.02 |
| TTGTGGGTTG | 1.89 ± 1.2 |
| TTGTGGTCGC | 0.97 ± 0.024 |
| TTGTGGTTGG | 0.994 ± 0.021 |
| TTGTGTAGTT | 1.01 ± 0.024 |
| TTGTGTATGC | 0.958 ± 0.1 |
| TTGTGTGGCA | 1.02 ± 0.054 |
| TTGTGTGGGT | 0.993 ± 0.02 |
| TTGTGTGGTT | 0.963 ± 0.038 |
| TTGTGTGTCA | 0.994 ± 0.022 |
| TTGTGTTGCG | 1.03 ± 0.051 |
| TTGTGTTGGG | 1.01 ± 0.034 |
| TTGTGTTTCT | 0.9974 ± 0.0066 |
| TTGTGTTTTG | 1.16 ± 0.39 |
| TTGTTACACA | 1.05 ± 0.043 |
| TTGTTAGGAT | 1.07 ± 0.062 |
| TTGTTATATT | 0.983 ± 0.026 |
| TTGTTCATAC | 1.27 ± 0.37 |

| Sequence | switch fluorescence ratio |
| --- | --- |
| TTGTTCGACT | 1.02 ± 0.016 |
| TTGTTCGGCC | 0.992 ± 0.035 |
| TTGTTGAAAC | 1.03 ± 0.085 |
| TTGTTGAGAG | 1.02 ± 0.022 |
| TTGTTGCCTG | 0.9907 ± 0.0083 |
| TTGTTGCGGG | 0.977 ± 0.019 |
| TTGTTGCTTA | 1.05 ± 0.006 |
| TTGTTGGGGT | 1.05 ± 0.12 |
| TTGTTGTGTG | 0.973 ± 0.033 |
| TTGTTGTTAT | 0.991 ± 0.017 |
| TTGTTTCCGA | 1 ± 0.058 |
| TTGTTTCGGT | 1.02 ± 0.063 |
| TTGTTTGATA | 0.9883 ± 0.0073 |
| TTGTTTGGAC | 1.03 ± 0.013 |
| TTGTTTGTGC | 1.02 ± 0.023 |
| TTGTTTTATC | 1 ± 0.021 |
| TTGTTTTTGG | 0.987 ± 0.032 |
| TTGTTTTTTA | 1.01 ± 0.016 |
| TTTAAAAAAC | 1 ± 0.026 |
| TTTAAAAATT | 0.987 ± 0.026 |
| TTTAAAACCA | 1.004 ± 0.0039 |
| TTTAAAACGG | 1.01 ± 0.06 |
| TTTAAAATCT | 1.016 ± 0.0092 |
| TTTAAAGACT | 1.01 ± 0.056 |
| TTTAAAGATG | 0.999 ± 0.018 |

| Sequence | switch fluorescence ratio |
| --- | --- |
| TTTAAAGATT | 1.01 ± 0.037 |
| TTTAAAGCGG | 1.01 ± 0.026 |
| TTTAAAGGGG | 1.05 ± 0.14 |
| TTTAAAGTGG | 0.98 ± 0.015 |
| TTTAAATAAA | 1 ± 0.017 |
| TTTAAATGCC | 1.05 ± 0.05 |
| TTTAACAACT | 1.01 ± 0.017 |
| TTTAACCGGT | 1.047 ± 0.0073 |
| TTTAACCTGC | 1.06 ± 0.011 |
| TTTAACGGGA | 1.15 ± 0.17 |
| TTTAACGTCA | 1.05 ± 0.023 |
| TTTAAGAAAT | 0.986 ± 0.011 |
| TTTAAGACGA | 1.02 ± 0.014 |
| TTTAAGGGAC | 1.05 ± 0.021 |
| TTTAAGTACG | 1.21 ± 0.048 |
| TTTAATAAAG | 1.02 ± 0.041 |
| TTTAATAATT | 1.03 ± 0.032 |
| TTTAATACGT | 1.023 ± 0.0034 |
| TTTAATCATT | 1 ± 0.029 |
| TTTAATGCGC | 1.23 ± 0.37 |
| TTTAATGGAG | 1.02 ± 0.034 |
| TTTAATGGGA | 1.03 ± 0.05 |
| TTTAATTA | 1.01 ± 0.032 |
| TTTAATTACT | 1.04 ± 0.037 |
| TTTAATTAGG | 1.03 ± 0.028 |

| Sequence | switch fluorescence ratio |
| --- | --- |
| TTTAATTTAT | 1.09 ± 0.12 |
| TTTAATTTTA | 1 ± 0.02 |
| TTTAATTTTT | 0.988 ± 0.036 |
| TTTACAGTTG | 0.96 ± 0.014 |
| TTTACCCGGC | 1.1 ± 0.13 |
| TTTACCGCTC | 1.26 ± 0.073 |
| TTTACGAGGT | 1.01 ± 0.037 |
| TTTACGAGTA | 1.01 ± 0.012 |
| TTTACGAGTG | 1.03 ± 0.019 |
| TTTACGCGCA | 1.01 ± 0.03 |
| TTTACGGAGG | 1.03 ± 0.021 |
| TTTACGTAGT | 1.03 ± 0.019 |
| TTTACGTGCG | 1.054 ± 0.0061 |
| TTTACGTTTT | 1.03 ± 0.041 |
| TTTACTCGCA | 1.3 ± 0.12 |
| TTTACTGAGA | 1.01 ± 0.033 |
| TTTACTTGTG | 1.01 ± 0.035 |
| TTTAGAAATA | 1.05 ± 0.022 |
| TTTAGAACTT | 1.01 ± 0.077 |
| TTTAGAAGGA | 0.9796 ± 0.0067 |
| TTTAGAGATG | 1.24 ± 0.41 |
| TTTAGATTGA | 0.99606 ± 0.00096 |
| TTTAGCACGA | 1 ± 0.024 |
| TTTAGCATAA | 1.23 ± 0.13 |
| TTTAGCGTCA | 0.9891 ± 0.0056 |
